# According to article PMC11272775, “Epigenetic memory is governed by an effector recruitment specificity toggle in Heterochromatin Protein 1” (Nature Communications, 2024):
# Positions count from the first letter of the chain named. Names may count otherwise.
# B1: Swi6-WT (recombinant, full-length) (natural protein, S. pombe, UniProt P40381 1-328, looked up)
# chain: MKKGGVRSYRRSSTSKRSVIDDDSEPELPSMTKEAIASHKADSGSSDNEVESDHESKSSSKKLKENAKEEEGGEEEEEDEYVVEKVLKHRMARKGGGYEYLLKWEGYDDPSDNTWSSEADCSGCKQLIEAYWNEHGGRPEPSKRKRTARPKKPEAKEPSPKSRKTDEDKHDKDSNEKIEDVNEKTIKFADKSQEEFNENGPPSGQPNGHIESDNESKSPSQKESNESEDIQIAETPSNVTPKKKPSPEVPKLPDNRELTVKQVENYDSWEDLVSSIDTIERKDDGTLEIYLTWKNGAISHHPSTITNKKCPQKMLQFYESHLTFRENE
# notes: Swi6, HP1 homolog of S. pombe; MW 37,292.6 g/mol; source: E. coli BL21(DE3)-RIPL, purified (Ni-NTA, anion exchange, SEC); not shown: 6XHis, N-terminal, cleaved
# B2: Swi6-T278Y (recombinant, full-length) (natural protein, S. pombe, UniProt P40381 1-328, looked up)
# chain: B1 chain with T278Y
# notes: Swi6, HP1 homolog of S. pombe, with T278Y; MW 37,354.7 g/mol; also called Swi6-Y; source: E. coli BL21(DE3)-RIPL, purified (Ni-NTA, anion exchange, SEC); not shown: 6XHis, N-terminal, cleaved
# B3: 3X FLAG-Swi6-WT (recombinant) (natural protein, S. pombe, UniProt P40381 1-328, looked up)
# chain: B1 chain
# notes: Swi6, HP1 homolog of S. pombe; source: E. coli BL21(DE3)-RIPL, purified (recombinant); not shown: 6XHis, N-terminal, cleaved
# B4: Swi6-T278K (recombinant, full-length) (natural protein, S. pombe, UniProt P40381 1-328, looked up)
# chain: B1 chain with T278K
# notes: Swi6, HP1 homolog of S. pombe, with T278K; MW 37,319.7 g/mol; also called Swi6-K; source: E. coli BL21(DE3)-RIPL, purified (Ni-NTA, anion exchange, SEC); not shown: 6XHis, N-terminal, cleaved
# Assays:
# [1] = test system: Swi6-WT (Schizosaccharomyces pombe); experiment: EMSA; conditions: 20 mM Hepes pH 7.5, 4 mM Tris, 80 mM KCl, 0.1% Igepal CA-630, 0.2 mM EDTA, 2 mM DTT, 10% glycerol, 10 nM mononucleosome, 30 °C 45 min, 6% acrylamide 0.5x TBE …
# [2] = target: the molecule itself; experiment: mass photometry; full-length recombinant Swi6 at 2.5-20 nM in 20 mM HEPES pH 7.5, 100 mM KCl; apparent dimerization constants (Kdim) from the relative abundance of monomer and dimer; dimer to monomers
# H3K9me3 mononucleosomes = experiment: native gel or EMSA; Swi6 varied, 10 nM mononucleosomes; 20 mM Hepes pH 7.5, 4 mM tris, 80 mM KCl, 0.1% Igepal CA-630, 0.2 mM EDTA, 2 mM DTT, 10% glycerol; 30 °C for 45 min; unbound nucleosome band quantified; apparent K1/2
# MBP-Epe1 = target: T1, MBP-Epe1 (S. pombe, UniProt O94603 1-948); experiment: pull-down; recombinant 3X FLAG-Swi6 immobilised on FLAG M2 beads, three concentrations of recombinant MBP-Epe1; 20 mM HEPES pH 7.5, 150 mM NaCl, 5 mM MgCl2, 10% glycerol, 0.25% Triton X-100, 1 mM DTT; 2 h at 4 °C; blots with anti-MBP and M2 Flag antibodies; conditions: both partners purified
# T1 construct: Epe1, S. pombe, full-length; also called MBP-His-TEV-Epe1; recombinant MBP-Epe1 fusion protein; source: Hi5 cells infected with baculovirus, purified (amylose resin, Superdex 200); not shown: MBP, N-terminal, kept
# T1 sequence (looked up): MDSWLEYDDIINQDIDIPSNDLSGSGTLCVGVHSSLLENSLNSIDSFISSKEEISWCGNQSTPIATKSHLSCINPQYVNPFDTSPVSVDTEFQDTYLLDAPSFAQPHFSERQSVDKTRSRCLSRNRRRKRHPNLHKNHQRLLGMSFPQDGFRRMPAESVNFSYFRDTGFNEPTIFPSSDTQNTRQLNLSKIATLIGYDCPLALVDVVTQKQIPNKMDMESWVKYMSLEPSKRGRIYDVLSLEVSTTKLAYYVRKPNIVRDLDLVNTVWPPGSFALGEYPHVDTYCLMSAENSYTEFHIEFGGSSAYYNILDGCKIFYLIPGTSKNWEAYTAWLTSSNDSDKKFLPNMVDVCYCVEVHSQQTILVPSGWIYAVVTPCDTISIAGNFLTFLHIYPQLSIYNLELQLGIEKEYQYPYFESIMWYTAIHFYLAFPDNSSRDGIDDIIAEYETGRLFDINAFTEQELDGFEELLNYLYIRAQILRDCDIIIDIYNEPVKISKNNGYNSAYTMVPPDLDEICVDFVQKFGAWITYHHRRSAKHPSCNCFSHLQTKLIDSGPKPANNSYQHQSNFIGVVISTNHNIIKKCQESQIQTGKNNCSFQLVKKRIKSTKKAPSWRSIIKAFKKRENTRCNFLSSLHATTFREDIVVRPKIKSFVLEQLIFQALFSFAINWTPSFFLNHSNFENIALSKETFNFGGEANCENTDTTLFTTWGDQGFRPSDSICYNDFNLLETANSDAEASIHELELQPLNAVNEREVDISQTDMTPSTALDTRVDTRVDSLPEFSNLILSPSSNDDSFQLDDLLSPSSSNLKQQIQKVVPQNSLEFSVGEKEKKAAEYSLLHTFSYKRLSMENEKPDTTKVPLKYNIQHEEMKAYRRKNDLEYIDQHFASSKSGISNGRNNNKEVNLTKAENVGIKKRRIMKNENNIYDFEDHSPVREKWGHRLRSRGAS
Molecule,Kd [2],stoichiometry N [2],apparent K1/2 (H3K9me3 mononucleosomes),specificity for H3K9me3 over H3K9me0 mononucleosomes (H3K9me3 mononucleosomes),also measured
H3K9me3 mononucleosome,–,–,–,–,"K half ([1]; H3K9me3 histone, histone H3K9me3 (DNA unmodified)): 50 nM"
H3K9me0 mononucleosome,–,–,–,–,"binding signal (fold weaker than H3K9me3) ([1]; H3K9me0 histone, unmodified H3 (H3K9me0)): 2.4"
B1,0.38 nM,2,50 nM,2.4 fold,–
B2,0.27 nM,2,39 nM,2.3 fold,–
B3,–,–,–,–,binding result (MBP-Epe1): binds
B4,0.2 nM,2,–,–,–
